Experimental data as given in patent US20090023139A1, “Method For Site-Specifically Introducing Non-Natural Amino Acid Into Protien Using Mitochondrial Protein and Method For Effectively Preparing Trna” (priority 2004, published 2009).

Legend:
[1] = system: tRNA^Tyr precursor having on the 5′ end an additional sequence; assay: Confirmation of C5 protein and M1 RNA (RNase P) cleavage activity; format: biochemical; settings: 150 pmol tRNA^Tyr precursor; 7M urea denatured polyacrylamide gel, methylene blue; FIG. 7
Experimental: In order to assay enzyme activity, 150 pmol of the tRNA^Tyr precursor having on the 5′ end an additional sequence was subjected to the reaction with 30 pmol of C5 proteins and […] of M1 RNA. The reaction buffer comprises 50 mM Tris-HCl (pH 7.4), 10 mM MgCl2, and 100 mM NH4Cl. The reaction solution was separated using a 7M urea-containing denatured polyacrylamide gel, and nucleic acid components were stained with methylene blue.

mt tRNA^Trp = assay: Assay of aminoacylation activity using 14C tryptophan; format: biochemical, yeast; settings: 30° C., 0-16 minutes; mtWRS with mt tRNA^Trp; FIG. 11
Experimental: In order to assay enzyme activity, aminoacylation was carried out using ^14C tryptophan. The reaction solution having the composition shown below was heated at 30° C. for about 5 minutes while the enzyme was removed therefrom. Thereafter, the enzyme was added, the mixture was incubated at 30° C., the mixture was spotted on a filter wetted with 5% TCA 0, 1, 4, 9, and 16 minutes after incubation, and the filter was then soaked in 5% TCA. After spotting of the reaction solution at each time point was completed, 5% TCA was discarded, and fresh 5% TCA was added to the beaker, followed by shaking for 10 minutes. This procedure was repeated twice, 100% ethanol was added, and the mixture was lightly shaken, followed by dehydration under an electric heat. Thereafter, the resultant was soaked in a scintillator, and the samples were counted using a liquid scintillation counter.
The reaction solution for aminoacylation (50 μl) was prepared by diluting 10 μl of 5×AAM (aminoacylation mixture), 0.05 A260 units of mt tRNA^Trp, an adequate amount of enzyme (depending on the concentration), and 2 μl of ^14C tryptophan in dH2O.
The 5×AAM (aminoacylation mixture) comprised 500 mM Tris-HCl (pH 7.6), 50 mM MgCl2, 200 mM KCl, and 20 mM ATP.
A scintillator (1 liter) was prepared by diluting 4 g of Dotite DPO and 0.1 g of Dotite POPOP in toluene.

cleavage activity [1] | Molecule | capacity of tRNA for accepting 14C-tryptophan (mt tRNA^Trp)
Cleavage activity could not be confirmed | C5 protein: protein component of E. coli RNase P (rnpA gene), expressed from pETC5 (protein, UniProt P0A7Y8 1-119, looked up) Ribonuclease P protein …: MVKLAFPRELRLLTPSQFTFVFQQPQRAGTPQITILGRLNSLGHPRIGLTVAKKNVRRAHERNRIKRLTRESFRLRQHELPAMDFVVVAKKGVADLDNRALSEALEKLWRRHCRLARGS | –
– | mtWRS: yeast (Saccharomyces cerevisiae) mitochondrial tryptophanyl tRNA synthetase, SEQ ID NO: 2, His-tagged, expressed from pYC2WRS (protein, His tag) ISTVQRADFKLNSEALHSNATVFSMIQPTGCFHLGNYLGATRVWTDLCELKQPGQELIFGVADLHAITVPKPDGEMFRKFRHEAVASILAVGVDPEKASVIYQSAIPQHSELHWLLSTLASMGLLNRMTQWKSKSNIKQSTNGDYLVNDSDVGKVRLGLFSYPVLQAADILLYKSTHVPVGDDQSQHLELTRHLAEKFNKMYKKNFFPKPVTMLAQTKKVLSLSTPEKKMSKSDPNHDSVIFLNDEPKAIQKKIRKALTDSISDRFYYDPVERPGVSNLINIVSGIQRKSIEDVVEDVSRFNNYRDFKDYVSEVIIEELKGPRTEFEKYINEPTYLHSVVESGMRKAREKAAKNLADIHKIMGF | acceptance of tryptophan was observed
